Experiments:
nNOS [1] = assay: Yeast two-hybrid interaction with nNOS (2-377); assay type: cell-based, rat
Description: (§1) FIGS. 1A-1C. Cloning of the CAPON cDNA and distribution of CAPON mRNA. […] Yeast were transformed with the indicated Gal4 activation domain (AD) and Gal4 DNA-binding domain (BD) plasmids and grown on plates […] histidine. A typical filter lift is shown in which b-galactosidase activity was detected by the appearance of a blue precipitate. pAD-CAPON1, comprising the last 125 amino acids of CAPON, activates lacZ transcription in the presence of pBD-nNOS (2-377) but not with plasmids the first three PDZ domains of PSD95 (amino acids 20-364) or the second PDZ domain of PSD93 (amino acids 116-421).
We conducted a yeast two-hybrid screen employing the first 377 amino acids of nNOS, a region which includes the PDZ domain that comprises the first 100 amino acids of nNOS. […]
Two-hybrid screens and the construction of the parent vectors pPC86, containing the GAL4-activation domain, and pPC97, containing the GAL4-DNA binding domain, have been described (Jaffrey and Snyder, 1996). Plasmid pBD-NOS(2-377) was prepared by the insertion of an nNOS PCR product corresponding to amino acids 2-377 of rat nNOS into the Sal I and Bgl II sites of pPC97, resulting in an open reading frame encoding a GAL4 BD-NOS fusion protein (Jaffrey and Snyder, 1996). […]

PSD93 = assay: Yeast two-hybrid interaction with PSD93 second PDZ domain (amino acids 116-421); assay type: cell-based
Description: as §1
(§2) We conducted a yeast two-hybrid screen employing the first 377 amino acids of nNOS, a region which includes the PDZ domain that comprises the first 100 amino acids of nNOS. […] The CAPON two-hybrid clones share a common carboxyl terminus and are predicted to translate into 125 and 327 amino acid peptides followed by a stop codon. […] Moreover, nNOS fails to interact with another control protein, c-fos. To obtain a full-length CAPON cDNA, we screened a rat brain cDNA library with the larger two-hybrid clone and isolated a 2100 bp cDNA which overlapped with the two-hybrid clone and was used to assemble a final 2820 bp cDNA (see Methods). The conceptual translation of this cDNA produces a 503 amino acid protein (FIG. 1B SEQ ID NO:4). […]

PSD95 = assay: Yeast two-hybrid interaction with PSD95 PDZ domains (amino acids 20-364); assay type: cell-based
Description: as §1, §2

iNOS = assay: GST-fusion protein binding assay with lysates of transfected HEK293 cells, iNOS; conditions: Western blot
Protocol: (§3) (FIG. 2A) CAPON binds to nNOS, but not eNOS or iNOS. Bacterially expressed GST, GST-PIN, and GST-CAPON were bound to glutathione agarose and then incubated with lysates of HEK293 cells transfected with expression plasmids for the indicated isoforms of NOS. After extensive washing of the resins, bound NOS was detected with isoform specific antibodies. […] Input=10% of starting material applied to each resin.
(§4) To assess the specificity of interactions between CAPON and nNOS, we evaluated the binding of a GST-CAPON fusion protein, consisting of C-terminal 125 amino acids of CAPON, with nNOS, eNOS and inducible NOS (iNOS) (FIG. 2A). Lysates of HEK-293 cells transfected with expression plasmids for each of the three forms of NOS were incubated with GST-CAPON. […] No interactions are evident with the GST control. […]
(§5) The material remaining on the resin was eluted with SDS-PAGE sample buffer and nNOS was detected by immunoblot using antibodies specific to each NOS isoform (Transduction Labs). […]

eNOS = assay: GST-fusion protein binding assay with lysates of transfected HEK293 cells, eNOS; conditions: Western blot
Protocol: as §3, §4, §5

nNOS [2] = molecular target: nNOS (Rattus norvegicus, UniProt P29476); assay: GST-fusion protein binding assay with lysates of transfected HEK293 cells, nNOS; design: expressed in transfected cells; host or cells: HEK293; conditions: Western blot
Protocol: as §3
(FIG. 4B) The C-terminal 13 amino acids of CAPON are sufficient for binding to nNOS. Various GST-CAPON fusion proteins were incubated with HEK293 lysates containing nNOS. A CAPON fusion protein comprising the last 100 amino acids binds nNOS, as do fusion proteins comprising the last 13 or 20 amino acids of CAPON.
as §4, §5

Chain of nNOS (Rattus norvegicus, UniProt P29476) (P29476 whole entry, the tested form may be a part): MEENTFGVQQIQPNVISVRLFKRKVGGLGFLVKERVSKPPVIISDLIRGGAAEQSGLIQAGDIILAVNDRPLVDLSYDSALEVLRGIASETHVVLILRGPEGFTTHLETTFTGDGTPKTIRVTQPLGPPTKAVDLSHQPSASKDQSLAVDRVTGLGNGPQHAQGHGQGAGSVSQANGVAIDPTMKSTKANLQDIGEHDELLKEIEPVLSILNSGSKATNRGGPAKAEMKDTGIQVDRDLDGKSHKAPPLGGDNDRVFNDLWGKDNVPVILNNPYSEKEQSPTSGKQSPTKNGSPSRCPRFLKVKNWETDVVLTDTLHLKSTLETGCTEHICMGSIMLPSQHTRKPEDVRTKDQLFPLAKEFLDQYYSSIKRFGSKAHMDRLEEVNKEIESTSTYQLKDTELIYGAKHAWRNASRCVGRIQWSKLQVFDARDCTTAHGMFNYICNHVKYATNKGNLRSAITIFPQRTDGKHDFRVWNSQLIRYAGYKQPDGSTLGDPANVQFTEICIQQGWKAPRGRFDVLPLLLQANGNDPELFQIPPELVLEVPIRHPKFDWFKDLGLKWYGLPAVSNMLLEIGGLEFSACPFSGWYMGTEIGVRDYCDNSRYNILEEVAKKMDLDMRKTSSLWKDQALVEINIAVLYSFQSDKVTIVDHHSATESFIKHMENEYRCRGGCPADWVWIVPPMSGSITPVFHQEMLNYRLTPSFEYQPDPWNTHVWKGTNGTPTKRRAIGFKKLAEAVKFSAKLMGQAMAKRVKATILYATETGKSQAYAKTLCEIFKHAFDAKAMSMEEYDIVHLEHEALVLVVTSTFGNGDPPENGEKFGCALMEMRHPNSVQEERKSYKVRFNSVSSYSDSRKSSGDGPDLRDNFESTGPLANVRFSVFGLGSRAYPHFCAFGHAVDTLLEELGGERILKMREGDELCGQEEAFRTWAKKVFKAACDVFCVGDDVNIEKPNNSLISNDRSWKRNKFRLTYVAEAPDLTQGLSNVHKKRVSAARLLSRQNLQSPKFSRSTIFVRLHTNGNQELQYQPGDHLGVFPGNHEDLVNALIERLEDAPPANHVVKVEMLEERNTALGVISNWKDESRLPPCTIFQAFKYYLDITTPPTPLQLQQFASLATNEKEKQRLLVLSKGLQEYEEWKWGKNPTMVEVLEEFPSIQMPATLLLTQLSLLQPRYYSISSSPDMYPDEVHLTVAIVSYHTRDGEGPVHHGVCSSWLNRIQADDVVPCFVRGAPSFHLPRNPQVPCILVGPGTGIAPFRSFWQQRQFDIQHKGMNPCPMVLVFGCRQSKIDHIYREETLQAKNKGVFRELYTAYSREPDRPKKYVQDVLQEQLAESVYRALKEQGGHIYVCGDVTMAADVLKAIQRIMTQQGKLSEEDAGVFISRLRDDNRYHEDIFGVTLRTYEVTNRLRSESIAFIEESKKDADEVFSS

Molecule | interaction with nNOS in the two-hybrid system (nNOS [1]) | interaction with PSD93 fragment in the two-hybrid system (PSD93) | interaction with PSD95 fragment in the two-hybrid system (PSD95) | binding of iNOS to immobilized GST-fusion protein (iNOS) | binding of eNOS to immobilized GST-fusion protein (eNOS) | binding of nNOS to immobilized GST-fusion protein (nNOS [2])
125 amino acid C-terminal fragment of CAPON: Gal4 activation domain fusion of the last 125 amino acids of CAPON (protein) SGALPVLCESTTPKPEDLHSPLLGAGLADFAHPVGSPLGRRDCLVKLECFRFLPAEDNQPMAQGEPLLGGLELIKFRESGIASEYESNTDESEERDSWSQEELPRLLNVLQRQELGDSLDDEIAV | specifically interacts | failure of CAPON to interact | failure of CAPON to interact | – | – | –
GST-CAPON: GST fusion protein consisting of CAPON amino acids 379-503 (C-terminal 125 amino acids) (protein) SGALPVLCESTTPKPEDLHSPLLGAGLADFAHPVGSPLGRRDCLVKLECFRFLPAEDNQPMAQGEPLLGGLELIKFRESGIASEYESNTDESEERDSWSQEELPRLLNVLQRQELGDSLDDEIAV | – | – | – | do not interact | do not interact | interacts strongly
